Measured values as given in patent publication US20260001937A1, “NOVEL RECOMBINANT FIBRINOGEN VARIANTS FOR FIBRIN SEALANTS FOR SURGICAL WOUND CARE” (Julius-Maximilians-Universität Würzburg, priority 2022, published 2026).

Assays:
[1] = system: ExpiCHO-S cell supernatant (degradation of fibrinogen α-chain); assay: Screening of inhibitors for Fbg degradation in ExpiCHO-S cell supernatant (SDS-PAGE); type: biochemical, Chinese hamster; details: commercial human Fbg 3.3 mg/mL, 37 C, several days, Aprotinin 50 μg/mL, EDTA 4 mM, 1,10 Phenanthroline 1 mM, UK 370106 100 μM
Description: ExpiCHO-S cells were cultured to a density of 6×10^6 cells/mL. Afterwards, cells were centrifuged for 4 min at 1000 rpm at RT and the supernatant was collected. Commercially available fibrinogen (SigmaAldrich) was mixed with the supernatant to a final concentration of 3.3 mg/mL and a volume of 200 μl. The mixture incubated at 37° C. and 750 rpm and samples were taken at 0, 24 and 48 h. For the screening the different inhibitors were added to the mixture (final concentrations: PMSF: 1 mM; Aprotinin: 50 μg/mL; GM6001: 25 μM; EDTA: 4 mM; 1,10 Phenanthroline: 1 mM; UK 370106: 100 μM). As control fibrinogen was incubated in 10 mM Tris/HCl, 150 mM NaCl (pH 7.5) under the same conditions. For the visualization of fibrinogen degradation, 20 μL of the mixtures were analyzed using SDS-PAGE.
Commercially available human Fbg was incubated with the supernatant taken from the CHO cells used for the expression and incubated the protein at 37 C for several days.

human plasmin = target: T1, human plasmin (Homo sapiens, UniProt P00747); assay: Plasmin digest in solution of Fbg and rFbg variants, high-resolution ESI-MS of γ-chain cleavage sites; type: biochemical; details: for plasmin cleavage at the 4 sites K88, K111, K382, K399 of the γ-chain: fibrinogen solution 1 mg/mL, plasmin 0.5 U/mL, 24 h, 37° C., high-resolution ESI-MS; for plasmin cleavage at position 382 of the γ-chain (FIG. 5): peptide fragments after plasmin and additional ProAlanase cleavage, both cleaved and non-cleaved peptides detected
T1 construct: Active plasmin is a serine protease that is derived from its zymogen plasminogen; purchased Merck
Description: In order to analyze plasmin digestion of mutated restriction sites, 100 μL of human plasmin (Merck) (0.5 U/mL) were added to 100 μg of Fbg and rFbg (Ala and His) and incubated for 24 h at 37° C. and 130 rpm in order to ensure complete cleavage. Afterwards, samples were stored at −80° C. For the analysis of the time-dependent cleavage site determination and quantification of plasmin, fibrin gels (20 mg/mL) were incubated with different plasmin concentrations ranging from 0.005 mU/mL-0.5 U/mL. Samples were taken at different timepoints from 1 min to 24 h. PMSF (1 mM) was added to the sample and heated at 95° C. for 10 minutes to ensure plasmin inactivation. Samples were stored at −80° C.
Proteins were digested either with plasmin alone (vide supra) or with plasmin and ProAlanase (ProAla) (Promega) with slight differences in handling. For all digests, all samples (WT/HIS/ALA) were brought to a concentration of 0.2 μg/μL in 50 mM tris buffer. For “plasmin only” samples were immediately purified (see below). For ProAla (Promega), 50 μL of 8M Guanidinium Hydrochloride were added to 10 μg (50 μL) of protein stock solution and briefly heated to ensure denaturation. To enable specific ProAla digest the solution was acidified using 900 μL of 32 mM HCl. After pH was checked to be in the range of 1-1.5, ProAla was added (1:50 ProAla:Protein; […]), proteolysis was allowed to continue for 2.5 h. Afterwards, pH was set to slightly basic by addition of 0.5-1 mL of 2 M Tris buffer. In the next step, the samples were immediately purified.
Precursor Tolerance of 15 ppm, fragment mass tolerance of 20 ppm, digestion C-terminal of K (non-specific), modifications are concurrent with the PMI-Byos recommendations for sequence variant analysis workflows (two rare and common modifications allowed).
Precursor Tolerance of 15 ppm, fragment mass tolerance of 20 ppm, digestion C-terminal of A and P (non-specific), modifications are concurrent with the PMI-Byos recommendations for sequence variant analysis workflows (two rare and common modifications allowed).
The α-chain plays an important part in the gelation process of fibrin. Due to the truncated α-chain gel formation with rFbg was not possible, as the production of intact complex (compare above) was still ongoing. Therefore, plasmin digests in solution with WT as well as both Ala- and His-rFbg mutants was performed to investigate if the inserted mutations are limiting proteolytic efficiency of plasmin at the respective cleavage sites. Plasmin was added to the fibrinogen solution (1 mg/mL) to a final concentration of 0.5 U/mL and the mixture was incubated for 24 h to ensure complete cleavage of fibrinogen. […] At some positions both cleaved and non-cleaved peptides were detected, however no cleavage did contain a mutation. This might be due to residual WT-Fbg peptides either on the column (carryover) or through residual WT-Fbg at any point in the workup.

T1 sequence (P00747 97-580 limits assumed): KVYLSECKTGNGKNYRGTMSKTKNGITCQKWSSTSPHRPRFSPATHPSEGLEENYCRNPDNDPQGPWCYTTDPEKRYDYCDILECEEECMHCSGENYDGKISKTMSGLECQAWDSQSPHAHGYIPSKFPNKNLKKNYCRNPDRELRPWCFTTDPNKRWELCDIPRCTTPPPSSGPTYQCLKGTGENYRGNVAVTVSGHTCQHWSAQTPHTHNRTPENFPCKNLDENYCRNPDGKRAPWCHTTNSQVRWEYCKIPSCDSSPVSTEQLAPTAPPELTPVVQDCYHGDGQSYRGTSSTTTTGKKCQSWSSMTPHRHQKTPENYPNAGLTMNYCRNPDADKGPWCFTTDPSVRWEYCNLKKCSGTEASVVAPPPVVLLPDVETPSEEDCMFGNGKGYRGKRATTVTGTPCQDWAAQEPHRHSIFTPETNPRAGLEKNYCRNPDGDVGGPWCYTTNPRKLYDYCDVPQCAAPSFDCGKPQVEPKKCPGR
T1 sequence (P00747 581-810 limits assumed): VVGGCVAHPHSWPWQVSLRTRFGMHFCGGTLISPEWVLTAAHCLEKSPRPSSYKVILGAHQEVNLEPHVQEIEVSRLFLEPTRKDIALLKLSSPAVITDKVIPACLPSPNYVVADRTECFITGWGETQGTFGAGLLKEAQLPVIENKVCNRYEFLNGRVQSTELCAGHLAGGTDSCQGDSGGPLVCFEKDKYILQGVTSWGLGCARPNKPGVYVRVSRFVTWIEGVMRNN
His-rFbgH433R435, sequence (chain, as listed by the source, chain 1 of 3): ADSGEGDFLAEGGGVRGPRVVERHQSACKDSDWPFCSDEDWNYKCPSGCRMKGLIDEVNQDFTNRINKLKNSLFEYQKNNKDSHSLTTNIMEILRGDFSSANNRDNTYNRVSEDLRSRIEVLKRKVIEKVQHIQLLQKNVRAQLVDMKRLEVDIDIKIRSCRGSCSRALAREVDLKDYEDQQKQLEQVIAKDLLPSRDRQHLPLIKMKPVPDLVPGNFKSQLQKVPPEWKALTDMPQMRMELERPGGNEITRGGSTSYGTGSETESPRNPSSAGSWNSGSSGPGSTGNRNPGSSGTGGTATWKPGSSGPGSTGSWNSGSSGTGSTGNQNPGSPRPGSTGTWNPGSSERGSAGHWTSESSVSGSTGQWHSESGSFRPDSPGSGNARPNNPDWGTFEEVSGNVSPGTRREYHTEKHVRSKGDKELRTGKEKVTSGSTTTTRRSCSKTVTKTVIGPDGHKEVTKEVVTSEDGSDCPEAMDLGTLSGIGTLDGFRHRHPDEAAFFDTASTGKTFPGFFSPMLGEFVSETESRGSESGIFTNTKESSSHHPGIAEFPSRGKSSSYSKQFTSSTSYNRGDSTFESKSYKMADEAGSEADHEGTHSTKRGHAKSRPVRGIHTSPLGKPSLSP
His-rFbgH433R435, sequence (chain, as listed by the source, chain 2 of 3): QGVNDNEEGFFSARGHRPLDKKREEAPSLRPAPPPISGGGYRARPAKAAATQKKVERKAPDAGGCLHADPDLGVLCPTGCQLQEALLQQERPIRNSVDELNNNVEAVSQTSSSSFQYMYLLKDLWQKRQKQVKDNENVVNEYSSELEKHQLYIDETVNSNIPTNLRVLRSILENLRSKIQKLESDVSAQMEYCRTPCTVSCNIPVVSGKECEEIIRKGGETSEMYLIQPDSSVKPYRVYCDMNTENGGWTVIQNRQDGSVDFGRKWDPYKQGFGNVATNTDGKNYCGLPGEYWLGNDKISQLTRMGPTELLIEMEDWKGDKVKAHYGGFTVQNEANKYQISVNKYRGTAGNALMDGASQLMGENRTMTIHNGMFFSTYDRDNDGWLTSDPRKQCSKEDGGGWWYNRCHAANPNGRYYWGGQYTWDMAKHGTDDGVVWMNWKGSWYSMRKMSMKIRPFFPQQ
His-rFbgH433R435, sequence (chain, as listed by the source, chain 3 of 3): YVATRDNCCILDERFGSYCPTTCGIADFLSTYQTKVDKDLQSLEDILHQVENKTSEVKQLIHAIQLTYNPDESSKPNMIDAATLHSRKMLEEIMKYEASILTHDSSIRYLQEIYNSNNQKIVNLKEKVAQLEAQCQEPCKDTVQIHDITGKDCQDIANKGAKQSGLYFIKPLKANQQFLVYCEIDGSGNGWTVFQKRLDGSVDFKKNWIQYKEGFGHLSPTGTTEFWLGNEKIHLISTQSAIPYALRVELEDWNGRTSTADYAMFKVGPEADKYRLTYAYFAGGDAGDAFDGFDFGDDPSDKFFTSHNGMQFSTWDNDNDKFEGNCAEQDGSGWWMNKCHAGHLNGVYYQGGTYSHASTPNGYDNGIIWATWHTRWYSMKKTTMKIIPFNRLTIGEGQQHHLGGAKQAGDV

| plasmin cleavage at the 4 sites K88, K111, K382, K399 of the γ-chain (human plasmin) | Compound | state of the Fbg α-chain after incubation with CHO cell supernatant plus inhibitor [1] | other results |
| --- | --- | --- | --- |
|  | c1cnc2c(c1)ccc1cccnc12 [1,10 Phenantroline, 1,10 Phenanthroline] | intact α-chain was detected |  |
|  | O=C(O)CN(CCN(CC(=O)O)CC(=O)O)CC(=O)O [EDTA] | intact α-chain was detected |  |
|  | COC[C@@H](NC(=O)[C@@H](NC(=O)[C@H](CCCc1ccc(-c2ccccc2)c(C)c1)CC(=O)O)C(C)(C)C)c1ccccc1 [UK 370106, (βR)-β-[[[(1 S)-1-[[[(1 S)-2-Methoxy-1-phenylethyl]amino]carbonyl]-2,2-dimethylpropyl]amino]carbonyl]-2-methyl-[1,1′-biphenyl]-4-hexanoic acid] | intact α-chain was detected |  |
| no cleavage was detected | Ala-rFbg: recombinant fibrinogen of Aα-, Bβ- and γ-chain with γ-chain K88A, K111A, K382A, K399A |  | plasmin cleavage at position 382 of the γ-chain (FIG. 5) (human plasmin): partial cleavage |
| no cleavage was detected | His-rFbg: recombinant fibrinogen of Aα-, Bβ- and γ-chain with γ-chain K88H, K111H, K382H, K399H |  | plasmin cleavage at position 382 of the γ-chain (FIG. 5) (human plasmin): partial cleavage |
| could be detected | WT: commercially available human fibrinogen (SigmaAldrich), wild type, used as control [reference compound] |  |  |
|  | thrombin |  | thrombin-catalyzed fibrin polymerization, turbidity at 350 nm (His-rFbgH433R435): thrombin-induced fibrin polymerization of His-rFbgH433R435 was slightly reduced compared with control (pFbg), with a similar lag time and comparable absorption |
